In publication PMC8238519 (Biochemical Journal, 2021):

B1: pea plastocyanin (natural protein, pea (Pisum sativum), UniProt P16002 70-168, looked up)
chain: VEVLLGASDGGLAFVPSSLEVSAGETIVFKNNAGFPHNVVFDEDEIPAGVDASKISMPEEDLLNAPGETYSVKLDAKGTYKFYCSPHQGAGMVGQVTVN

Columns and labels:
[1] = molecular target: Chlamydomonas reinhardtii photosystem I PsaA-Asp648Arg (Chlamydomonas reinhardtii) (UniProt P12154)
pea PsaB = pea PsaB (Pisum sativum (pea), UniProt P05311 13-734); test: cryo-EM structure
pea PsaA = pea PsaA (Pisum sativum (pea), UniProt P05310 16-758); test: cryo-EM structure
pea PsaA, sequence (P05310 16-758): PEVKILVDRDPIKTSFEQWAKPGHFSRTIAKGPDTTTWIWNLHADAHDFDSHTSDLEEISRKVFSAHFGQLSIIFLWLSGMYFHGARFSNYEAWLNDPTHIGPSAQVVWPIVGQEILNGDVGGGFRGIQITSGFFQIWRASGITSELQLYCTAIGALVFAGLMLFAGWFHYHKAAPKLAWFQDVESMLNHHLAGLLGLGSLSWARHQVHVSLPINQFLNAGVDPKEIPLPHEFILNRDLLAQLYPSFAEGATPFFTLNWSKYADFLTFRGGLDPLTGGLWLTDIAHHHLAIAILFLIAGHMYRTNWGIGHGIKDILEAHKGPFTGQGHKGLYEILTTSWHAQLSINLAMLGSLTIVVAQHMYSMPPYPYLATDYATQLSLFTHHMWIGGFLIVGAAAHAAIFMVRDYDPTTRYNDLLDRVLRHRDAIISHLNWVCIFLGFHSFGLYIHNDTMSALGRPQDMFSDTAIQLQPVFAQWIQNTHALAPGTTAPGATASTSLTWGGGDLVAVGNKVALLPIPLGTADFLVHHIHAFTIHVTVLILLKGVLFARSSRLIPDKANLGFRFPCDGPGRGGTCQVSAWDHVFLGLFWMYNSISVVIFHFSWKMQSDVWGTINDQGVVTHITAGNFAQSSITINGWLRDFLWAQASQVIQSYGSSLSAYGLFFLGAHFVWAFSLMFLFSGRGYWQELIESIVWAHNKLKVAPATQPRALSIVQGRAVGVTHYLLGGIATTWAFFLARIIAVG

pea PsaB, sequence (P05311 13-734): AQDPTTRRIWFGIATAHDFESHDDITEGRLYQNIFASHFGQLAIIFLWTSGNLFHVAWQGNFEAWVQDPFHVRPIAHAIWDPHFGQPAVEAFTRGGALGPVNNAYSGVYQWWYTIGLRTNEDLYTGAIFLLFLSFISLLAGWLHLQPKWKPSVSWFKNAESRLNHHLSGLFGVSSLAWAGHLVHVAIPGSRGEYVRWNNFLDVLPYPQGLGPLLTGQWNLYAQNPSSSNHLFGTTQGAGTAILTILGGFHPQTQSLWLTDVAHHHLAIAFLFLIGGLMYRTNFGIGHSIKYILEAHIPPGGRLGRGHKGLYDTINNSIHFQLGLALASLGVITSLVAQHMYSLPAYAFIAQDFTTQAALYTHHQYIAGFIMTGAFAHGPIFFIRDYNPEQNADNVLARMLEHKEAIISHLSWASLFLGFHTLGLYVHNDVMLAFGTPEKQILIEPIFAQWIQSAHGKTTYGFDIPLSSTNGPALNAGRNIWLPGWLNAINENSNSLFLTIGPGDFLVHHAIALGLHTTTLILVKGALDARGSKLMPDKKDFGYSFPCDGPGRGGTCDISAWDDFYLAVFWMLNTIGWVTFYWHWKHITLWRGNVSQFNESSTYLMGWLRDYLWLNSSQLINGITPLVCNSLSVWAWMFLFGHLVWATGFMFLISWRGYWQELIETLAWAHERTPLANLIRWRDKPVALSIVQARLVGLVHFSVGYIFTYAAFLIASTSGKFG

Molecule | second-order rate constant of P700+ reduction by Pc (single flash absorption) [1] [M⁻¹ s⁻¹] | binding result (pea PsaB) | binding result (pea PsaA)
Chlamydomonas reinhardtii plastocyanin (natural protein) | 6.54e+07 |  | 
B1 |  | binds | binds
